Measurements as given in patent US20130252901A1 (KIMONELLA VENTURES, published 2013).

T1: Ac-DAEFRHDSGYEVHHQKGGGGC-NH2, immobilized peptide fragment corresponding to the 1-16 region of the amyloid-β … (N-terminal acetyl (Ac); C-terminal amide (NH2); C-terminal cysteine bound to the CM5 chip through a thiol bond)
T1 construct: Synthetic 21-mer; Aβ 1-16 plus GGGG linker and Cys for immobilisation; also called ligand; target ligand
T1 peptide: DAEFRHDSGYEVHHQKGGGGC


What follows are binders tested against complete β peptide 1-40, marked by a fluorescent marker (UniProt P05067 672-711, fluorescent marker, kind and position not stated) (assay: cell-based or functional assay).
complete β peptide 1-40, marked by a fluorescent marker, sequence (P05067 672-711 limits assumed): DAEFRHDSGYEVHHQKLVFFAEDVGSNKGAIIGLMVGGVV

inhibition of the aggregation of the Aβ peptide (fluorescence of marked Aβ 1-40 bound to the wells, SYNTHALOID SCREENING PLATE kit), IC50 | Binder
20 µM | Ac-RADD-NH2 (also called ID; NO) [Ac-RADD-NH2]
20 µM | Ac-HAEE-NH2 (also called ID; NO; 19) [Ac-HAEE-NH2]

Target: T1, Ac-DAEFRHDSGYEVHHQKGGGGC-NH2, …
Experiment: SPR, BIACORE 3000, procedure of Example 1

Binder | binding result
Ac-KNIAHAEEAD-NH2 (also called ID; NO; 50) [Ac-KNIAHAEEAD-NH2] | no binding (tested: Kd from 10^-3 to 10^-4 M)
Ac-KQLGHAEEGE-NH2 (also called ID; NO; 52) [Ac-KQLGHAEEGE-NH2] | no binding (tested: Kd from 10^-3 to 10^-4 M)
Ac-DERQISHAEE-NH2 (also called ID; NO; 58) [Ac-DERQISHAEE-NH2] | no binding (tested: Kd from 10^-3 to 10^-4 M)
Ac-EEKNIAHAEE-NH2 (also called ID; NO; 55) [Ac-EEKNIAHAEE-NH2] | no binding (tested: Kd from 10^-3 to 10^-4 M)
Ac-DEKQLGHAEE-NH2 (also called ID; NO; 57) [Ac-DEKQLGHAEE-NH2] | no binding (tested: Kd from 10^-3 to 10^-4 M)
Ac-DDHSLAHAEE-NH2 (also called ID; NO; 54) [Ac-DDHSLAHAEE-NH2] | no binding (tested: Kd from 10^-3 to 10^-4 M)
Ac-EERNFSHAEE-NH2 (also called ID; NO; 56) [Ac-EERNFSHAEE-NH2] | no binding (tested: Kd from 10^-3 to 10^-4 M)
Ac-RQISHAEEQE-NH2 (also called ID; NO; 53) [Ac-RQISHAEEQE-NH2] | no binding (tested: Kd from 10^-3 to 10^-4 M)
Ac-HAEESE-NH2 (also called ID; NO; 41) [Ac-HAEESE-NH2] | no binding (tested: Kd from 10^-3 to 10^-4 M)
Ac-HAEESD-NH2 (also called ID; NO; 39) [Ac-HAEESD-NH2] | no binding (tested: Kd from 10^-3 to 10^-4 M)
Ac-HAEEQE-NH2 (also called ID; NO; 43) [Ac-HAEEQE-NH2] | no binding (tested: Kd from 10^-3 to 10^-4 M)
Ac-HAEEGE-NH2 (also called ID; NO; 42) [Ac-HAEEGE-NH2] | no binding (tested: Kd from 10^-3 to 10^-4 M)
Ac-HAEEAD-NH2 (also called ID; NO; 40) [Ac-HAEEAD-NH2] | no binding (tested: Kd from 10^-3 to 10^-4 M)
Ac-LAHAEE-NH2 (also called ID; NO; 44) [Ac-LAHAEE-NH2] | no binding (tested: Kd from 10^-3 to 10^-4 M)
Ac-LGHAEE-NH2 (also called ID; NO; 47) [Ac-LGHAEE-NH2] | no binding (tested: Kd from 10^-3 to 10^-4 M)
Ac-FSHAEE-NH2 (also called ID; NO; 46) [Ac-FSHAEE-NH2] | no binding (tested: Kd from 10^-3 to 10^-4 M)
Ac-IAHAEE-NH2 (also called ID; NO; 45) [Ac-IAHAEE-NH2] | no binding (tested: Kd from 10^-3 to 10^-4 M)
Ac-ISHAEE-NH2 (also called ID; NO; 48) [Ac-ISHAEE-NH2] | no binding (tested: Kd from 10^-3 to 10^-4 M)
Ac-RNFSHAEESE-NH2 (also called ID; NO; 51) [Ac-RNFSHAEESE-NH2] | no binding (tested: Kd from 10^-3 to 10^-4 M)
Ac-HSLAHAEESD-NH2 (also called ID; NO; 49) [Ac-HSLAHAEESD-NH2] | no binding (tested: Kd from 10^-3 to 10^-4 M)
Ac-AADD-NH2 (also called ID; NO; 32) [Ac-AADD-NH2] | no binding (tested: Kd from 10^-3 to 10^-4 M)
Ac-HAAD-NH2 (also called ID; NO; 33) [Ac-HAAD-NH2] | no binding (tested: Kd from 10^-3 to 10^-4 M)
Ac-HAEA-NH2 (also called ID; NO; 30) [Ac-HAEA-NH2] | no binding (tested: Kd from 10^-3 to 10^-4 M)
Ac-RADA-NH2 (also called ID; NO; 36) [Ac-RADA-NH2] | no binding (tested: Kd from 10^-3 to 10^-4 M)
Ac-AADE-NH2 (also called ID; NO; 35) [Ac-AADE-NH2] | no binding (tested: Kd from 10^-3 to 10^-4 M)
Ac-AAEE-NH2 (also called ID; NO; 29) [Ac-AAEE-NH2] | no binding (tested: Kd from 10^-3 to 10^-4 M)
Ac-HAAE-NH2 (also called ID; NO; 31) [Ac-HAAE-NH2] | no binding (tested: Kd from 10^-3 to 10^-4 M)
Ac-KAAE-NH2 (also called ID; NO; 38) [Ac-KAAE-NH2] | no binding (tested: Kd from 10^-3 to 10^-4 M)
Ac-RAAE-NH2 (also called ID; NO; 37) [Ac-RAAE-NH2] | no binding (tested: Kd from 10^-3 to 10^-4 M)
Ac-HADA-NH2 (also called ID; NO; 34) [Ac-HADA-NH2] | no binding (tested: Kd from 10^-3 to 10^-4 M)

Target: T1, Ac-DAEFRHDSGYEVHHQKGGGGC-NH2, …
Experiment: SPR, BIACORE T100, ligand immobilised on CM5 chip, peptide as analyte 50-2,000 µM, no zinc, kinetic fit

Kd | koff | Binder
1370 µM | 0.0062 s⁻¹ | Ac-DDAK-NH2 (also called ID; NO) [Ac-DDAK-NH2]
1980 µM | 0.00709 s⁻¹ | Ac-DEAR-NH2 (also called ID; NO; 12) [Ac-DEAR-NH2]
4500 µM | 0.0096 s⁻¹ | Ac-KADE-NH2 (also called ID; NO; 15) [Ac-KADE-NH2]
3250 µM | 0.0104 s⁻¹ | Ac-HADD-NH2 (also called ID; NO) [Ac-HADD-NH2]
7700 µM | 0.0112 s⁻¹ | Ac-RAEE-NH2 (also called ID; NO; 23) [Ac-RAEE-NH2]
3300 µM | 0.019 s⁻¹ | Ac-KAED-NH2 (also called ID; NO) [Ac-KAED-NH2]
13 µM | 0.00024 s⁻¹ | Ac-RADD-NH2 (also called ID; NO) [Ac-RADD-NH2]
90 µM | 3.5e-05 s⁻¹ | Ac-HAEE-NH2 (also called ID; NO; 19) [Ac-HAEE-NH2]

Target: T1, Ac-DAEFRHDSGYEVHHQKGGGGC-NH2, …
Experiment: SPR, BIACORE 3000, ligand immobilised on CM5 chip by thiol bond, peptide as analyte 0-25 µM, response at equilibrium; Example 1, BIACORE 3000, response at equilibrium
Experimental: The SPR spectroscopy experiments were conducted with the BIACORE 3000 apparatus. The reagents for immobilizing the amyloid-β peptide fragment (EDC, NHS, PDEA and cysteine) were bought from GE Healthcare (USA). The buffer used for immobilizing the peptide ligand by formation of thiol bonds was 10 mM sodium acetate at pH 4.5. The regeneration buffer was an HBS buffer containing a medium with 10 mM HEPES and 3 mM EDTA, 0.005% of surfactant P20 and 150 mM NaCl at pH 7.4. […] was a HBS buffer at pH 7.4 and a HEPES buffer at pH 6.8, 50 mM, with 100 μM of Zn(II) ions for the reactive tetrapeptide Ac-HAEE-NH₂. All the buffers were filtered before use.
The peptide fragment of the ligand was: Ac-[…]-NH₂, corresponding to the sequence SEQ. ID. NO.26. This peptide with 21 amino acids contains the 16 amino acids of the N-terminal end of the binding domain of the amyloid-β, i.e. […] (SEQ. ID. NO.25), followed by 4 glycine amino acids and a cysteine C-Terminal end. […]
The reagent Ac-HAEE-NH₂ was prepared by dilution with 7 concentrations, i.e. 0, 2, 5, 10, 15, 20 and 25 μM, and injected in a multichannel mode (20 μL QUICKINJECT, 5 μL/min). […] Next, the dissociation constant Kd was calculated in a known way from curves established for the response at equilibrium (Req) versus the concentration (M) in the BIA evaluation 4.1 program.

Kd | Binder
0.022 µM | Ac-HAEE-NH2 (also called ID; NO; 19) [Ac-HAEE-NH2]
